These results are taken from paper PMC10981675, “Structural basis for phage-mediated activation and repression of bacterial DSR2 anti-phage defense system” (Nature Communications, 2024).

To fix the notation:
B1: defense-associated sirtuin 2 (DSR2), wild type (enzyme, Bacillus subtilis)
chain: MVKVDLESKRYGEKLKEVFLMLDNNVVECIKEITESSRNGKLVFFVGAGVSTLSDYPQWWRLVDKYHEELYGSPKKGNYSSDEYLRIPQIFYNVKGEMAFDGILKDFFQVDKPTNPIHDKILAMNPAHVITTNYDNLIDTACWKRGKYFSVISAEEDVANATSSRYLLKVHGDFRKGFKGENVVLKEDDYLNYDQNYPLISNLMKTIIATHTIVFIGYGLGDYNINMLLNWVRKLQKDSFHKPFFIRTDPSPIENETLIYYENKGLRIIDAASLIDSNEYDYLERYSAVMDLLIESQENKFITKDDEVIDYIYGKISPLFALQYIRKIDLKHVFEYDYHFEVNGTVVRHKNKGFGYMERFFELKESCDERSKLSKKQYERFNALFNFFEKNGVICMAKDAGTLNTSIEINSLAYHGKYDVMKKFIEEQSVSIEDDYKKAFFLACLGRWEESYDLYSNIILNSIDESNGCVYYLSQINRYRIYQSITQAVTQFNGLGLLTFGRHYKPFTDEFLARIEREMTNFNIDDLFNGMPFEFQKKYKILEFLSDNQFLYDDTVKLFELTNKVRSEMSEGSYSFGMSSDIVVLLRLYDNLRFLYENCLWSVSFHEFHQYIRNSMSLLIEKAEYERTRDIDELGFSFFGKKSGFFMEYYDFVNISRHFKIDDIKNLERSCSIDKIRFGEQEKIEEYLVGIAEEITKQFSANGMNVVFYTQFISEAKAALYFAKYVKLSEEGLGKIVKALLFYFPERDLDIGKRYVWLERLTKCNELPKSIISIIDDFLVLQAEKHIDQNYSEVSSNGLYSRDYGALIKHFEKNFISKRLSEITLCLTQDKQKQIDFLFKLLPLLSTNAKSHLLSFKSVENINDLMNGIRIGLIDEFTPEHEELIIEYLETRKVNYIVEKEKGIQTFSSNDYMSTFGIWYFLEEINNSKMEEFIGMDDQYDFFVDPENFDYKKFIPSWLKNYNDKLLGKIAGNKHMKHHVIEVLKERVKNSNDKRYLEILMNYFI
notes: DSR2 (defense-associated sirtuin 2) of Bacillus subtilis, NCBI protein WP_029317421; codon-optimized synthetic gene in pRSFDuet MCS1; Tetramer (dimer of dimers) by cryo-EM and SEC; also called WT DSR2; wild-type DSR2; source: E. coli BL21 Star (DE3), purified (Ni-NTA, HiTrap Q, Superdex 200); also co-purified with tube or DSAD1; not shown: 6×His, N-terminal, kept
B2: DSR2 H171A (enzyme, Bacillus subtilis)
chain: MVKVDLESKRYGEKLKEVFLMLDNNVVECIKEITESSRNGKLVFFVGAGVSTLSDYPQWWRLVDKYHEELYGSPKKGNYSSDEYLRIPQIFYNVKGEMAFDGILKDFFQVDKPTNPIHDKILAMNPAHVITTNYDNLIDTACWKRGKYFSVISAEEDVANATSSRYLLKVAGDFRKGFKGENVVLKEDDYLNYDQNYPLISNLMKTIIATHTIVFIGYGLGDYNINMLLNWVRKLQKDSFHKPFFIRTDPSPIENETLIYYENKGLRIIDAASLIDSNEYDYLERYSAVMDLLIESQENKFITKDDEVIDYIYGKISPLFALQYIRKIDLKHVFEYDYHFEVNGTVVRHKNKGFGYMERFFELKESCDERSKLSKKQYERFNALFNFFEKNGVICMAKDAGTLNTSIEINSLAYHGKYDVMKKFIEEQSVSIEDDYKKAFFLACLGRWEESYDLYSNIILNSIDESNGCVYYLSQINRYRIYQSITQAVTQFNGLGLLTFGRHYKPFTDEFLARIEREMTNFNIDDLFNGMPFEFQKKYKILEFLSDNQFLYDDTVKLFELTNKVRSEMSEGSYSFGMSSDIVVLLRLYDNLRFLYENCLWSVSFHEFHQYIRNSMSLLIEKAEYERTRDIDELGFSFFGKKSGFFMEYYDFVNISRHFKIDDIKNLERSCSIDKIRFGEQEKIEEYLVGIAEEITKQFSANGMNVVFYTQFISEAKAALYFAKYVKLSEEGLGKIVKALLFYFPERDLDIGKRYVWLERLTKCNELPKSIISIIDDFLVLQAEKHIDQNYSEVSSNGLYSRDYGALIKHFEKNFISKRLSEITLCLTQDKQKQIDFLFKLLPLLSTNAKSHLLSFKSVENINDLMNGIRIGLIDEFTPEHEELIIEYLETRKVNYIVEKEKGIQTFSSNDYMSTFGIWYFLEEINNSKMEEFIGMDDQYDFFVDPENFDYKKFIPSWLKNYNDKLLGKIAGNKHMKHHVIEVLKERVKNSNDKRYLEILMNYFI
notes: DSR2 of Bacillus subtilis, NCBI protein WP_029317421, with H171A; source: E. coli, co-expressed with the tail tube protein, co-purified

One data set addresses T1, DSR2–tube complex (Bacillus subtilis, UniProt P0DXN8).
T1 construct: gene BKP58_08510; full-length DSR2, N-terminal 6xHis, E. coli BL21 Star (DE3), codon-optimized; tube GST tag removed by HRV 3C; tetrameric DSR2; DSR2:tube 4:2 (wild type) or 4:4 (H171A with NAD+); with Tail tube protein (Bacillus phage SPR)
T1 sequence (P0DXN8 1-1005): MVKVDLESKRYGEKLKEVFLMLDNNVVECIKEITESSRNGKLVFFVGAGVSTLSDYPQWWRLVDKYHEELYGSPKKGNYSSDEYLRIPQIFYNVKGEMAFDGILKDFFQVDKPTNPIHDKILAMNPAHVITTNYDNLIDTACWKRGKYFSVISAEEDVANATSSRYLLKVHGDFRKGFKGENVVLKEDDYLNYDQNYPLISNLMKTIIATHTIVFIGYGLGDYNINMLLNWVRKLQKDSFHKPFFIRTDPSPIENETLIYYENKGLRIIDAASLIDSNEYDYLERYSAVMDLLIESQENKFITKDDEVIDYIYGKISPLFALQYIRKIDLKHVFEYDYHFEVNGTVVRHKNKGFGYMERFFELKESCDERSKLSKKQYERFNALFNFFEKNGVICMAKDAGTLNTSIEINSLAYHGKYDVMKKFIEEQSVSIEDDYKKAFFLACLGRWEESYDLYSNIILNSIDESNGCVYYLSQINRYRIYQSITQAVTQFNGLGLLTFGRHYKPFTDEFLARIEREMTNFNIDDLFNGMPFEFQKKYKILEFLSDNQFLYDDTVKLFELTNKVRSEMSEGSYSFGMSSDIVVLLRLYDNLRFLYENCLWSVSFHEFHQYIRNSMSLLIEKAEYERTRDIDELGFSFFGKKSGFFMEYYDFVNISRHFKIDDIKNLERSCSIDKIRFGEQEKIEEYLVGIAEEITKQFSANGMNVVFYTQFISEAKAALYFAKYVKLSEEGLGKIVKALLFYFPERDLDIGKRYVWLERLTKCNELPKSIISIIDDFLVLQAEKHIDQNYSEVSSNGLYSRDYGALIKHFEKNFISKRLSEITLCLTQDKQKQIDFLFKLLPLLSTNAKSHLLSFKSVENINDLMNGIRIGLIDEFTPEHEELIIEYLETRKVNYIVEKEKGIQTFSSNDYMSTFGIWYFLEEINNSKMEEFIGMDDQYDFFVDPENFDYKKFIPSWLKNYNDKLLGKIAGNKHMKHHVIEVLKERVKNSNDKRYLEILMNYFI
T1 sequence (A0AAE9G628 1-264 partner): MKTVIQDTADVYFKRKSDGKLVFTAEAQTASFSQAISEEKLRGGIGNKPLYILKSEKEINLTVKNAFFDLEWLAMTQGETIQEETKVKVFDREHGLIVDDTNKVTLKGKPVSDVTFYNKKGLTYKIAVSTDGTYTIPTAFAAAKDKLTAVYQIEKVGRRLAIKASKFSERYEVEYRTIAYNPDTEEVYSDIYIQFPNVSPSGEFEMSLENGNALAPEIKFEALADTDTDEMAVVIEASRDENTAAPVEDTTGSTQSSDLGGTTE
Put plainly: fluorescence NADase assay (ex […] nm, em […] nm). The note with it: 400 nM protein, 50 μM εNAD+, 10 mM MES pH 6.5, 75 mM KCl, 2 mM MgCl2, 37 °C. In kind it is biochemical.

In data set [1] the target is defense-associated sirtuin 2 (DSR2), wild type (Bacillus subtilis) (UniProt P0DXN8). The experiment in a line: cryo-EM structure; purified DSR2 (~25 mg/mL), co-purified DSR2-DSAD1 (~25 mg/mL) or co-purified DSR2-tube (~4 mg/mL, polylysine-treated grid); no NAD+ added; Titan Krios 300 kV. The note with it: scale: DSAD1 per DSR2.
Data set [2] shares this target. The experiment in a line: cryo-EM structure; co-purified complex incubated with 1 mM NAD+ before freezing. The note with it: scale: DSAD1 per DSR2.
Data set [3] concerns the molecule itself. The experiment in a line: SEC; purified DSR2 alone; Superdex 200 Increase 10/300 GL, 20 mM Tris-HCl pH 7.5, 150 mM NaCl, 1 mM DTT.
Data set [4] deals with the molecule itself. Put plainly: cryo-EM structure; co-purified complex incubated with 1 mM NAD+ before freezing.
The data set “DSR2 H171A” deals with B2. The description is as above. Conditions: both partners purified.
Data set [5] deals with the molecule itself. The experiment in a line: SEC; purified tail tube protein alone. Background: SEC sorts molecules by how far they enter the pores of the column.
For data set [6], the target named is B1. The experiment in a line: cryo-EM structure; purified DSR2 (~25 mg/mL), co-purified DSR2-DSAD1 (~25 mg/mL) or co-purified DSR2-tube (~4 mg/mL, polylysine-treated grid); no NAD+ added; Titan Krios 300 kV. Conditions: both partners purified.

As to `NC(=O)c1ccc[n+]([C@@H]2O[C@H](COP(=O)(O)OP(=O)(O)OC[C@H]3O[C@@H](n4cnc5c4ncn4ccnc54)[C@H](O)[C@@H]3O)[C@@H](O)[C@H]2O)c1` [εNAD^+], the “fluorescence NADase assay (ex 300 nm, em 410 nm)” value at DSR2–tube complex was “The purified DSR2–tube complex exhibited pronounced NADase activity”. With “DSR anti-defense 1 (DSAD1) (natural protein)”, the stoichiometry N in data set [1] and in data set [2] was 0.5 each time. Regarding B1, the “stoichiometry N” value in data set [3] turned out to be 4. Take B2: the “stoichiometry N” value in data set [4] is 4.

B3: tail tube protein of phage SPR, wild type (natural protein)
chain: MKTVIQDTADVYFKRKSDGKLVFTAEAQTASFSQAISEEKLRGGIGNKPLYILKSEKEINLTVKNAFFDLEWLAMTQGETIQEETKVKVFDREHGLIVDDTNKVTLKGKPVSDVTFYNKKGLTYKIAVSTDGTYTIPTAFAAAKDKLTAVYQIEKVGRRLAIKASKFSERYEVEYRTIAYNPDTEEVYSDIYIQFPNVSPSGEFEMSLENGNALAPEIKFEALADTDTDEMAVVIEASRDENTAAPVEDTTGSTQSSDLGGTTE
notes: tail tube protein of Bacillus phage SPR; domains D1 and D2; GST removal with HRV 3C is told for the DSR2-tube complex; Alone it runs as monomeric and oligomeric species on SEC; Only D1 is seen in the maps; also called phage tail tube protein; source: E. coli BL21 Star (DE3); purified alone, or co-purified with DSR2 (Ni-NTA, glutathione resin, HRV 3C cleavage, HiTrap Q, Superdex 200); not shown: …
Regarding B3, the “stoichiometry N” value with DSR2 H171A was 1 tube per DSR2 (printed as DSR2:tube 4:4); in data set [6], 0.5 tube per DSR2 (printed as DSR2:tube 4:2). Besides, the binding result in data set [5] was “binds”.
